These results are taken from paper doi:10.64898/2025.12.17.694860.

This test deals with Trypanosoma brucei enolase (Trypanosoma brucei). Nature of the test: SEC.

Usually stoichiometry N stands for the number of molecules, sites or subunits per partner or assembly.

Turning to Trypanosoma brucei enolase (enzyme), the stoichiometry N worked out at 2.
